Test results from US12473560 (FLAGSHIP PIONEERING INNOVATIONS VI, dated 2025).

Target: soluble G614 HexaPro spike ectodomain (SARS-CoV-2, UniProt P0DTC2 14-1208)

Row | Binder | Kd [nM]
1 | AB-1 full-length IgG1 (antibody, V domains shown) VH: EVQLEESGTVLARPGASVKMSCKASGYTFTTYWMHWIKQRPGQGLEWIGAIYPGNSDTQYNQKFKDKAKLTAVKSTSSAYMELSSLTNEDSAVYFCTREGIPQLLRTLDYWGQGTSVTVSS VL: DILMTQSPSSLSASLGERVSLTCRASQEISGYLSWLQEKPDGTIKRLIYAASTLDSGVPKRFSGSRSGSDYSLTISSLESEDFADYYCLQYLSYPWTFGGGTKLEIK | 0.389
2 | AB-2 full-length IgG1 (antibody, V domains shown) VH: EVQLEESGTVLARPGASVKMSCKASGYTFTTYWMHWIKQRPGQGLEWIGAIYPGNGDTNYNQKFKDKAKLTAVKSTSSAYMELSSLTNEDSAVYFCTREGIPQLLRTLDYWGQGTSVTVSS VL: DILMTQSPSSLSASLGERVSLTCRASQEISGYLSWLQEKPDGTIKRLIYAASTLDSGVPKRFSGSRSGSDYSLTISSLESEDFADYYCLQYLSYPWTFGGGTKLEIK | 1.69
3 | AB-3 full-length IgG1 (antibody, V domains shown) VH: EVQLEESGTVLARPGASVKMSCKASGYTFTTYWMHWIKQRPGQGLEWIGAIYPGNGDTNYNQKFKDKAKLTAVKSTSSAYMELSSLTNEDSAVYFCTREGIPQKLRTLDVWGQGTSVTVSS VL: DILMTQSPSSLSASLGERVSLTCRASQEISGYLSWLQEKPDGTIKRLIYAASTLDSGVPKRFSGSRSGSDYSLTISSLESEDFADYYCLQYLSYPWTFGGGTKLEIK | 2.07
4 | AB-6 full-length IgG1 (antibody, V domains shown) VH: EVQLEESGTVLARPGASVKMSCKASGYTFTSYWMHWIKQRPGQGLEWIGAIYPGNSDTNYNQKFKDKAKLTAVKSTSSAYMELSSLTNEDSAVYFCTREGIPQLTRTLDYWGQGTSVTVSS VL: DILMTQSPSSLSASLGERVSLTCRASQEISGYLSWLQEKPDGTIKRLIYAASTLDSGVPKRFSGSRSGSDYSLTISSLESEDFADYYCLQYLSYPWTFGGGTKLEIK | 0.628
5 | AB-8 full-length IgG1 (antibody, V domains shown) VH: EVQLEESGTVLARPGASVKMSCKASGYTFTTYWMHWIKQRPGQGLEWIGAIYPGNSDTIYNQKFKDKAKLTAVKSTSSAYMELSSLTNEDSAVYFCTREGIPQLLRTLDYWGQGTSVTVSS VL: DILMTQSPSSLSASLGERVSLTCRASQEISGYLSWLQEKPDGTIKRLIYAASTLDSGVPKRFSGSRSGSDYSLTISSLESEDFADYYCLQYLSYPWTFGGGTKLEIK | 1.73
6 | AB-9 full-length IgG1 (antibody, V domains shown) VH: EVQLEESGTVLARPGASVKMSCKASGYTFTSYWMHWIKQRPGQGLEWIGAIYPGNSDTNYNQKFKDKAKLTAVTSTSSAYMELSSLTNEDSAVYFCTREGIPQLLRTLDYWGQGTSVTVSS VL: DILMTQSPSSLSASLGERVSLTCRASQEISGYLSWLQEKPDGTIKRLIYAASTLDSGVPKRFSGSRSGSDYSLTISSLESEDFADYYCLQYLSYPWTFGGGTKLEIK | 1.2
7 | AB-7 full-length IgG1 (antibody, V domains shown) VH: EVQLEESGTVLARPGASVKMSCKASGYTFTSYWMHWIKQRPGQGLEWIGAIYPGNSDTNYNQKFKDKAKLTAVKSTSSAYMELSSLTNEDSAVYFCTREGIPQLLRSLDYWGQGTSVTVSS VL: DILMTQSPSSLSASLGERVSLTCRASQEISGYLSWLQEKPDGTIKRLIYAASTLDSGVPKRFSGSRSGSDYSLTISSLESEDFADYYCLQYLSYPWTFGGGTKLEIK | 2.55
8 | AB-4 full-length IgG1 (antibody, V domains shown) VH: EVQLEESGTVLARPGASVKMSCKASGYTFTTYWMHWIKQRPGQGLEWIGAIYPGNGDTNYNQKFKDKAKLTAVKSTSSAYMELSSLTNEDSAVYFCTREGIPQLLRTFDYWGQGTSVTVSS VL: DILMTQSPSSLSASLGERVSLTCRASQEIGGYLSWLQEKPDGTIKRLIYAASTLDSGVPKRFSGSRSGSDYSLTISSLESEDFADYYCLQYLSYPWTFGGGTKLEIK | 1.14
9 | AB-5 full-length IgG1 (antibody, V domains shown) VH: EVQLEESGTVLARPGASVKMSCKASGYTFTSYWMHWIKQRPGQGLEWIGAIYPGNGDTNYNQKFKDKAKLTAVKSTSSAYMELSSLTNEDSAVYFCTREGIPQLLNTLDVWGQGTSVTVSS VL: DILMTQSPSSLSASLGERVSLTCRASQEISGYLSWLQEKPDGTIKRLIYAASTLDSGVPKRFSGSRSGSDYSLTISSLESEDFADYYCQQYLSYPWTFGGGTKLEIK | 2.09
